{
  "source": "patent US20110289605A1",
  "about": "“Animal Model for Osteoarthritis and Intervertebral Disc Disease” (THE UNIVERSITY OF ROCHESTER, priority 2008, published 2011)",
  "molecules": {"B1": {"name": "Wnt3a: canonical Wnt ligand (protein, UniProt P56704 19-352, looked up)", "Protein Wnt-3a": "SYPIWWSLAVGPQYSSLGSQPILCASIPGLVPKQLRFCRNYVEIMPSVAEGIKIGIQECQHQFRGRRWNCTTVHDSLAIFGPVLDKATRESAFVHAIASAGVAFAVTRSCAEGTAAICGCSSRHQGSPGKGWKWGGCSEDIEFGGMVSREFADARENRPDARSAMNRHNNEAGRQAIASHMHLKCKCHGLSGSCEVKTCWWSQPDFRAIGDFLKDKYDSASEMVVEKHRESRGWVETLRPRYTYFKVPTERDLVYYEASPNFCEPNPETGSFGTRDRTCNVSSHGIDGCDLLCCGRGHNARAERRREKCRCVFHWCCYVSCQECTRVYDVHTCK"}},
  "key": {"[1]": {"test_system": "Col2a1-CreER^T2;R26R mice", "test": "TM-induced Cre-recombination in articular and growth plate chondrocytes, X-Gal staining", "assay_type": "in vivo, mouse", "details": "for Cre-recombination efficiency in articular chondrocytes: n=3", "experimental": "Col2a1-CreER^T2 transgenic mice were bred with Rosa26 reporter mice. Methods for mouse genotyping including primer sequences are the same as described previously (Chen et al., Genesis 45:44-50 (2007); Zhu et al., Osteoarthr. Cartilage 16:129-30 (2008)). Tamoxifen (TM, 1 mg/10 g body weight/day, i.p. injection, ×5 days) was administered to the 3- and 6-month-old mice, which were sacrificed 2 months after TM induction at the age of 5 and 8 months. Cre-recombination efficiency was evaluated by X-Gal staining. Nuclear Fast Red staining was performed as a counter stain. β-catenin^fx(Ex3)/fx(Ex3) mice were originally reported by Harada et al (Harada et al., Embo J. 18:5931-42 (1999)). The sequences of PCR primers for genotyping β-catenin^fx(Ex3)/fx(Ex3) mice are: upper primer, 5′-[…]-3′ (SEQ ID NO:10) and lower primer, 5′-[…]-3′ (SEQ ID NO:11). The 412-bp PCR product was detected in wild-type mice, and the 645-bp PCR product was detected in homozygous β-catenin^fx(Ex3)/fx(Ex3) mice. In heterozygous mice (β-catenin^fx(Ex3)/wt), both 412 and 645-bp PCR products were detected. The Col2a1-CreER^T2;β-catenin^fx(Ex3)/w transgenic mice and their Cre-negative littermates were used as controls and were administered TM as the experimental animals for phenotype analysis and cellular function studies.\nIn the present study, TM-induced Cre-recombination in fully developed growth-plate cartilage was investigated. Thus, creating the possibility of completely separating the role of a specific gene in articular chondrocytes from its potential effect on the growth plate cartilage, which may indirectly affect the function of articular cartilage. Col2a1-CreER^T2 transgenic mice were bred with Rosa26 reporter mice (Soriano, Nat. Genet. 21:70-71 (1999); Mao et al., Proc. Natl. Acad. Sci. USA 96:5037-42 (1999)). TM induction was performed in the 3- and 6-month-old Col2a1-CreER^T2;R26R mice. Mice were then sacrificed 2 months after TM induction at the age of 5 and 8 months and Cre-recombination efficiency was evaluated by X-Gal staining."}, "[2]": {"test_system": "IVD cells of Col2a1-CreER^T2;R26R transgenic mice", "test": "TM-induced Cre-recombination in intervertebral disc (IVD) cells, X-Gal staining", "assay_type": "in vivo, mouse", "details": "TM to 2-week-old mice, X-Gal staining at 1 month of age; listed as TM", "experimental": "Since chondrocyte-specific β-catenin cAct mice (targeted by Col2a1-Cre transgenic mice) are embryonic lethal, to target intervertebral disc (IVD) cells (Col2a1-positive cell population) in postnatal and adult mice, the Col2a1-CreER^T2;R26R transgenic mice were used. Cre-recombination efficiency in IVD cells was determined in postnatal mice. TM (1 mg/10 g body weight, i.p., ×5 days) was administered into 2-week-old Col2a1-CreER^T2;R26R transgenic mice. Mice were sacrificed at 1 month of age and X-Gal staining was performed."}, "[3]": {"test_system": "RCS chondrogenic cell line", "test": "Wnt3a treatment, Runx2 protein expression (Western blot)", "assay_type": "cell-based", "details": "0-48 hours", "experimental": "(§1) To determine the signaling mechanism through which β-catenin regulates Mmp-13 gene expression, in vitro studies using a RCS chondrogenic cell line were performed. […] A putative Runx2 binding site was identified within the 3.4 kb region of the Mmp-13 promoter."}, "[4]": {"test_system": "3.4 kb mouse Mmp-13 promoter", "test": "Mmp-13 promoter activity", "assay_type": "cell-based", "experimental": "as §1"}, "[5]": {"test_system": "RCS chondrogenic cell line", "test": "Wnt3a treatment of RCS cells, Mmp-13 mRNA expression", "assay_type": "cell-based", "details": "24 and 48 hours", "experimental": "Total RNA extracted from primary articular chondrocytes, articular cartilage tissue, or primary disc cells was prepared using Trizol (Invitrogen; Carlsbad, Calif.) according to the manufacturer's protocol. One microgram total RNA was used to synthesize cDNA by iScripts cDNA Synthesis Kit (Bio-Rad; Hercules, Calif.).\nas §1"}},
  "note": "“Also recorded” adds a separate entry of the source.",
  "data": [
    {"molecule": "CC/C(=C(\\c1ccccc1)c1ccc(OCCN(C)C)cc1)c1ccccc1", "note": "[Tamoxifen]", "values": [
      {"measurement": "Cre-recombination efficiency in growth plate chondrocytes", "setting": "[1]; TM administered in 3- and 6-month-old mice, 2 months after induction", "result": "less than 20%"},
      {"measurement": "Cre-recombination efficiency in articular chondrocytes", "setting": "[1]; TM administered in 3-month-old mice, X-Gal staining 2 months after induction (5-month-old)", "result": 84, "unit": "%"},
      {"measurement": "Cre-recombination efficiency in articular chondrocytes", "setting": "[1]; TM administered in 6-month-old mice, X-Gal staining 2 months later (8-month-old)", "result": 76, "unit": "%"},
      {"measurement": "Cre-recombination efficiency in IVD cells", "setting": "[2]", "result": "high efficiency of Cre-recombination in annulus fibrosus cells and endplate cartilage cells but not in nucleus pulposus cells; also recorded: High Cre-recombination efficiency was observed in annulus fibrosus (AF) cells and endplate cartilage (EC) cells but not nucleus pulposus (NP) cells"}
    ]},
    {"molecule": "B1", "values": [
      {"measurement": "Runx2 protein expression", "setting": "[3]", "result": "stimulated Runx2 protein expression in a time-dependent manner"},
      {"measurement": "Runx2 protein expression", "setting": "[3]; listed as Wnt3a2", "result": "significantly up regulated"},
      {"measurement": "Mmp-13 promoter activity, Runx2 binding site mutated", "setting": "[4]; mutation of the Runx2 binding site in the promoter", "result": "completely blocked the stimulatory effect; also recorded: completely abolished"},
      {"measurement": "Mmp-13 promoter activity", "setting": "[4]; wild-type 3.4 kb promoter", "result": "stimulated Mmp-13 promoter activity"},
      {"measurement": "Mmp-13 mRNA expression", "setting": "[5]", "result": "significantly increased; also recorded: stimulated Mmp-13 expression"}
    ]}
  ]
}
